Measurements from article PMC11519604, “TOX2 nuclear-cytosol translocation is linked to leukemogenesis of acute T-cell leukemia by repressing TIM3 transcription” (Cell Death and Differentiation, 2024).

Target: the molecule itself
Assay: not stated; HEK293T cells with forced expression or knockdown of TOX and TOX2; bands told by apparent size (Supplementary Fig. 3B)

B1: TOX-Flag (full-length TOX) (natural protein, UniProt O94900 1-526, looked up)
chain: MDVRFYPPPAQPAAAPDAPCLGPSPCLDPYYCNKFDGENMYMSMTEPSQDYVPASQSYPGPSLESEDFNIPPITPPSLPDHSLVHLNEVESGYHSLCHPMNHNGLLPFHPQNMDLPEITVSNMLGQDGTLLSNSISVMPDIRNPEGTQYSSHPQMAAMRPRGQPADIRQQPGMMPHGQLTTINQSQLSAQLGLNMGGSNVPHNSPSPPGSKSATPSPSSSVHEDEGDDTSKINGGEKRPASDMGKKPKTPKKKKKKDPNEPQKPVSAYALFFRDTQAAIKGQNPNATFGEVSKIVASMWDGLGEEQKQVYKKKTEAAKKEYLKQLAAYRASLVSKSYSEPVDVKTSQPPQLINSKPSVFHGPSQAHSALYLSSHYHQQPGMNPHLTAMHPSLPRNIAPKPNNQMPVTVSIANMAVSPPPPLQISPPLHQHLNMQQHQPLTMQQPLGNQLPMQVQSALHSPTMQQGFTLQPDYQTIINPTSTAAQVVTQAMEYVRSGCRNPPPQPVDWNNDYCSSGGMQRDKALYLT
notes: TOX, full length (526 residues by the printed limits of TOX(C) 257-526), in pCDH vector; Both are written as this one molecule; source: HEK293T, transfected, in lysate; not shown: Flag, C-terminal, kept
stoichiometry N: 2
